Experimental findings from paper PMC7116876, “Mechanistic Insights into Regulation of the ALC1 Remodeler by the Nucleosome Acidic Patch” (Cell reports, 2020) are described below.

In series [1] the test system is ALC1 ATPase with WT/WT nucleosomes. In words: Nucleosome-stimulated ATPase activity. The series is classed as biochemical, Homo sapiens ALC1; Xenopus laevis histones. The following applies: 20 μM ALC1 with 2 μM WT/WT nucleosomes versus 1 μM ALC1 with dsDNA, 1 mM ATP. As to the method:
(§1) ATPase activity was measured using a coupled assay that measures ADP production as described previously, ([Willhoft et al., 2016]). Final concentrations of 0.45 mM NADH, 1.0 mM phosphoenolpyruvate, 54 U/ml pyruvate kinase (Sigma), and 78 U/ml lactic dehydrogenase (Sigma) were used. For measurements of nucleosome-stimulated ATPase activity, reactions contained 20 μM ALC1,2 μM WT/WT nucleosomes, and 1 mM ATP in a volume of 30 μl. Fluorescence was monitored (excitation wavelength: 340 nm; emission wavelength: 430 nm) at 37°C using a CLARIOstar microplate reader (BMG Labtech) and black low-volume 384-well microplates (Corning). For measurements of DNA-stimulated ATPase activity, the absorbance was monitored at 340 nm for reactions containing a final of 1 μM ALC1 and either 20 μM or 50 μM 145 bp nucleosomal double-stranded (ds) DNA in 100 μl. Reaction rates were determined using mean linear slopes. For measurements of nucleosome-stimulated ATPase activity, we estimated Vmax for both ALC1^fl R860W and ALC1^fl R611A/S612A/R860W using the Michaelis-Menten equation and the Km values that we obtained from nucleosome sliding kinetics in Figure 3B.
For fluorescence anisotropy binding experiments, the reported values represent the mean ± SEM from 3 independent experiments. For ATPase activity measurements, the reported values represent the mean ± standard deviation from 3 independent experiments. For ensemble nucleosome remodeling time courses, each experimental condition was recorded in 3 independent experiments, and representative remodeling time courses are shown. Relative remodeling rates derived from these curves represent the mean ± standard deviation from 3 independent experiments. For smFRET experiments, values are reported as mean ± SEM from several experiments as specified in the corresponding figure legends. For association kinetics from live-cell imaging, error bars represent SEM from N ≥ 131 traces from 3 independent experiments.

The test system of series [2] is ALC1-catalyzed remodeling of WT/WT nucleosomes. The series is described as follows: Ensemble FRET nucleosome remodeling, WT/WT nucleosomes. The following applies: WT/WT end-positioned nucleosomes, saturating remodeler and ATP. The series is classed as biochemical, Homo sapiens ALC1; Xenopus laevis histones. The text has this: (§2) cDNAs for ALC1 and PARP1 were of Homo sapiens origin. Histone proteins (recombinantly expressed in E. coli) were of Xenopus laevis origin. Cell lines as well as growth conditions are described in the Method Details.
(§3) Oligonucleotides used in this study were ordered from IDT (see Table S3). The ALC1^fl (16-879) construct contains the human ALC1 sequence and a 6xHis-tag, as previously published ([Lehmann et al., 2017]). All point mutations were generated by PCR-based site-directed mutagenesis. The plasmid for human PARP1 (1-1014) with an N-terminal 6xHis-tag was a kind gift from John M. Pascal ([Langelier et al., 2017]).
(§4) The DNA constructs used in the nucleosome assembly for single-molecule and ensemble remodeling studies comprised the Widom 601 nucleosome positioning sequence ([Lowary and Widom, 1998]) as well as either 3 bp or 12 bp of linker DNA on one side and 78 bp on the other side (for the single-molecule remodeling construct) or 63 bp of linker DNA on one side and no linker DNA on the other side (for the ensemble remodeling construct). […] The DNA constructs for the assembly of nucleosomes used in fluorescence anisotropy experiments and ATPase assays comprised the Widom 601 positioning sequence without additional linker DNA (for the fluorescence anisotropy construct) or 63 bp of linker DNA on one side and no linker DNA on the other side (for the ATPase assay construct). […]
Nucleosome ensemble remodeling kinetics were measured by monitoring the Cy5 (under 620 nm and 520 nm excitation) and Cy3 (under 520 nm excitation) fluorescence emission signals of a solution of FRET-labeled nucleosomes using a Spark (Tecan) or CLARIOstar (BMG Labtech) multimode microplate reader. […] Reaction kinetics were analyzed assuming a standard Michaelis-Menten mechanism.
(§5) For fluorescence anisotropy binding experiments, the reported values represent the mean ± SEM from 3 independent experiments. […] For ensemble nucleosome remodeling time courses, each experimental condition was recorded in 3 independent experiments, and representative remodeling time courses are shown. […]

For series [3], the system named is individual WT/WT nucleosomes. The series is described as follows: smFRET remodeling directionality, WT/WT nucleosomes. The series is classed as biochemical, Xenopus laevis histones. The following applies: 2.5 μM remodeler, 1 mM ATP, n > 100 traces. An excerpt:
(§6) The DNA constructs used in the nucleosome assembly for single-molecule and ensemble remodeling studies comprised the Widom 601 nucleosome positioning sequence ([Lowary and Widom, 1998]) as well as either 3 bp or 12 bp of linker DNA on one side and 78 bp on the other side (for the single-molecule remodeling construct) or 63 bp of linker DNA on one side and no linker DNA on the other side (for the ensemble remodeling construct). All constructs were 5’-labeled with Cy5 on the short linker end. The constructs for single-molecule experiments additionally featured a biotin on the long linker end. […] The DNA constructs for the assembly of nucleosomes used in fluorescence anisotropy experiments and ATPase assays comprised the Widom 601 positioning sequence without additional linker DNA (for the fluorescence anisotropy construct) or 63 bp of linker DNA on one side and no linker DNA on the other side (for the ATPase assay construct). […]
(§7) Using the DNA constructs for single-molecule FRET described above, we first generated oriented hexasomes with H2A-Cy3 on the short linker side using a salt dialysis method as described previously ([Dyer et al., 2004]; [Levendosky et al., 2016]; [Sabantsev et al., 2019]). […] Data were analyzed using custom scripts for the Fiji distribution of ImageJ ([Schindelin et al., 2012]; [Schneider et al., 2012]), IDL, and MATLAB ([Sabantsev et al., 2019]). […]

The test system of series [4] is individual WT/APM nucleosomes. In words: smFRET remodeling directionality, WT/APM nucleosomes. To be noted: 2.5 μM remodeler, 1 mM ATP, n > 100 traces. The series is classed as biochemical, Xenopus laevis histones.
Excerpt: as §6, §7

Series [5] deals with ALC1-catalyzed remodeling of APM/APM nucleosomes. In words: Ensemble FRET nucleosome remodeling, APM/APM versus WT/WT nucleosomes. The format is biochemical, Homo sapiens ALC1; Xenopus laevis histones. To be noted: 20 μM remodeler, 10 nM nucleosomes, 1.5 mM ATP; n = 3 independent experiments.
Excerpt: as §2, §3, §4

In series [6] the test system is ALC1 ATPase with 145 bp dsDNA. In words: DNA-stimulated ATPase activity. To be noted: 1 μM ALC1, 20 μM or 50 μM 145 bp dsDNA, 1 mM ATP; N = 3 independent experiments. The series is classed as biochemical, Homo sapiens ALC1. As to the method:
as §1, with “For measurements of nucleosome-stimulated ATPase activity, we estimated Vmax for both ALC1^fl R860W and ALC1^fl R611A/S612A/R860W using the Michaelis-Menten equation and the Km values that we obtained from nucleosome sliding kinetics in Figure 3B.” left out
as §5

B1: ALC1^fl R860W: constitutively active mutant of ALC1 (protein)
chain: FLLRLHTEGRAEAARVQEQDLRQWGLTGIHLRSYQLEGVNWLAQRFHCQNGCILGDEMGLGKTCQTIALFIYLAGRLNDEGPFLILCPLSVLSNWKEEMQRFAPGLSCVTYAGDKEERACLQQDLKQESRFHVLLTTYEICLKDASFLKSFPWSVLVVDEAHRLKNQSSLLHKTLSEFSVVFSLLLTGTPIQNSLQELYSLLSFVEPDLFSKEEVGDFIQRYQDIEKESESASELHKLLQPFLLRRVKAEVATELPKKTEVVIYHGMSALQKKYYKAILMKDLDAFENETAKKVKLQNILSQLRKCVDHPYLFDGVEPEPFEVGDHLTEASGKLHLLDKLLAFLYSGGHRVLLFSQMTQMLDILQDYMDYRGYSYERVDGSVRGEERHLAIKNFGQQPIFVFLLSTRAGGVGMNLTAADTVIFVDSDFNPQNDLQAAARAHRIGQNKSVKVIRLIGRDTVEEIVYRKAASKLQLTNMIIEGGHFTLGAQKPAADADLQLSEILKFGLDKLLASEGSTMDEIDLESILGETKDGQWVSDALPAAEGGSRDQEEGKNHMYLFEGKDYSKEPSKEDRKSFEQLVNLQKTLLEKASQEGRSLRNKGSVLIPGLVEGSTKRKRVLSPEELEDRQKKRQEAAAKRRRLIEEKKRQKEEAEHKKKMAWWESNNYQSFCLPSEESEPEDLENGEESSAELDYQDPDATSLKYVSGDVTHPQAGAEDALIVHCVDDSGHWGRGGLFTALEKRSAEPRKIYELAGKMKDLSLGGVLLFPVDDKESRNKGQDLLALIVAQHRDRSNVLSGIKMAALEEGLKKIFLAAKKKKASVHLPRIGHATKGFNWYGTERLIWKHLAARGIPTYIYYFPRSK
modifications: left off: His6, end not stated, state not stated
Turning to B1, the “nucleosome-stimulated ATPase activity, fold higher than DNA-stimulated ATPase activity” value in series [1] is given as ~ 1.6 fold. In series [2], the “FRET change upon addition of remodeler and ATP” value is reported as “FRET decreased”. Besides, in series [3], the “fraction of single-nucleosome remodeling traces with initial decrease in FRET (toward longer linker DNA)” value was 62% and the “fraction of traces with opposite directionality (toward shorter linker DNA)” value stood at 38%. Moreover, the “fraction of WT/APM nucleosomes moved toward the shorter linker end” value in series [4] is recorded as 89%. In addition, in series [5], the “fold decrease in remodeling rate, APM/APM versus WT/WT nucleosomes” value is ~ 13.7 fold. The “DNA-stimulated ATPase activity, ALC1^fl R860W versus ALC1^fl R611A/S612A/R860W” value in series [6] is “essentially identical DNA-stimulated ATPase activity”.
